According to PMC8524200, “Structural studies of codeinone reductase reveal novel insights into aldo-keto reductase function in benzylisoquinoline alkaloid biosynthesis” (The Journal of Biological Chemistry, 2021):

Target: the molecule itself
Experiment: SEC; Superdex 200 (2.4 ml), 25 mM Tris-HCl pH 7.5, 150 mM KCl, 0.5 mM EDTA; COR1.3 0.5 mg/ml diluted in running buffer and incubated overnight at room temperature (oxidizing conditions); also run with 1 mM DTT in the buffer (reducing conditions: dimer destabilized)

B1: codeinone reductase COR1.3 isoform (enzyme, Papaver somniferum)
chain: MESNGVPMITLSSGIRMPALGMGTAETMVKGTEREKLAFLKAIEVGYRHFDTAAAYQSEECLGEAIAEALQLGLIKSRDELFITSKLWCADAHADLVLPALQNSLRNLKLDYLDLYLIHHPVSLKPGKFVNEIPKDHILPMDYKSVWAAMEECQTLGFTRAIGVCNFSCKKLQELMAAAKIPPVVNQVEMSPTLHQKNLREYCKANNIMITAHSVLGAICAPWGSNAVMDSKVLHQIAVARGKSVAQVSMRWVYQQGASLVVKSFNEGRMKENLKIFDWELTAENMEKISEIPQSRTSSADFLLSPTGPFKTEEEFWDEKD
modifications: intermolecular disulfide bond between Cys-220 of each protomer
notes: codeinone reductase isoform COR1.3, Papaver somniferum (AAF13738; Q9SQ68.1); The methods for size-exclusion chromatography say only 'purified COR1.3'; also called apo-COR
- stoichiometry N: 2
